From patent US20230212268A1 (UNM RAINFOREST INNOVATIONS, published 2023)
Where “and” joins values, the source holds several entries; their conditions need not be identical. Equal entries are not always repeated.

Columns and labels:
[1] = biological target: recombinant BDBV glycoprotein (BDBV (Bundibugyo ebolavirus)); experiment: ELISA dose response, GP coated
[2] = biological target: T1, recombinant RESTV glycoprotein (RESTV (Reston ebolavirus), UniProt Q66799 34-651); experiment: ELISA dose response, GP coated
T1 sequence: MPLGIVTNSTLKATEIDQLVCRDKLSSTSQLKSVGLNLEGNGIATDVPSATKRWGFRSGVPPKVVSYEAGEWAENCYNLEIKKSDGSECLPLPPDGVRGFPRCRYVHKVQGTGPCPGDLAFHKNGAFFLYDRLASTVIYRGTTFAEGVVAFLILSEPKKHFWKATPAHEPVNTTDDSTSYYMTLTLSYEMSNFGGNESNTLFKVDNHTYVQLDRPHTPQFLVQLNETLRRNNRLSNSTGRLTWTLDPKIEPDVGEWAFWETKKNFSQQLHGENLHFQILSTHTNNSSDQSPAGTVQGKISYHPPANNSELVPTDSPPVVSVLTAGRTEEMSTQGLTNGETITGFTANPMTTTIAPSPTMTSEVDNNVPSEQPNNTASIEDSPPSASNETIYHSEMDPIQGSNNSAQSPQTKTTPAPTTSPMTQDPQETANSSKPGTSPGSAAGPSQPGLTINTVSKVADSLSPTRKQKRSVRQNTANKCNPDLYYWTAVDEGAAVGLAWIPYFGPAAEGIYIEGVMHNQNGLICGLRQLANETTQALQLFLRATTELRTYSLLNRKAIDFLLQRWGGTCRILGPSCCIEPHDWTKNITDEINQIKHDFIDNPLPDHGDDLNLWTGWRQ

[3] = biological target: T2, recombinant TAFV glycoprotein (TAFV (Tai Forest virus), UniProt Q66810 33-650); experiment: ELISA dose response, GP coated
T2 sequence: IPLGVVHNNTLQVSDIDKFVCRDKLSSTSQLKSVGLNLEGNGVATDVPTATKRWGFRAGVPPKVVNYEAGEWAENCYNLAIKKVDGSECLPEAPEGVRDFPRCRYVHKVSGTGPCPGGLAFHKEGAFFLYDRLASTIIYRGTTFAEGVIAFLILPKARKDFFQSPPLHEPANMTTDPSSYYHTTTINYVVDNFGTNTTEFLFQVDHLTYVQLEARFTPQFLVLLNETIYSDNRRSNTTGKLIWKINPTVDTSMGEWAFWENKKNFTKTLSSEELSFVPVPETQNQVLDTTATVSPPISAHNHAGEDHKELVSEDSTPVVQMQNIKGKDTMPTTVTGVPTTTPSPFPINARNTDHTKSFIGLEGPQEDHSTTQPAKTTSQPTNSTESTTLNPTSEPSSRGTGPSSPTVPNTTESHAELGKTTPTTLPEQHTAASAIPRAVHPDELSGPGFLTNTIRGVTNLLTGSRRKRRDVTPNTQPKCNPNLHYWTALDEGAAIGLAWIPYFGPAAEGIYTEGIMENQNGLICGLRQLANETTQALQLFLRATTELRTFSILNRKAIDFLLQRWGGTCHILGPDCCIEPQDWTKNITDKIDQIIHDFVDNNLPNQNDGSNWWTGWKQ

[4] = biological target: T3, recombinant MARV glycoprotein (MARV (marburgvirus, Ravn), UniProt Q1PDC7 19-648); experiment: ELISA dose response, GP coated
T3 sequence: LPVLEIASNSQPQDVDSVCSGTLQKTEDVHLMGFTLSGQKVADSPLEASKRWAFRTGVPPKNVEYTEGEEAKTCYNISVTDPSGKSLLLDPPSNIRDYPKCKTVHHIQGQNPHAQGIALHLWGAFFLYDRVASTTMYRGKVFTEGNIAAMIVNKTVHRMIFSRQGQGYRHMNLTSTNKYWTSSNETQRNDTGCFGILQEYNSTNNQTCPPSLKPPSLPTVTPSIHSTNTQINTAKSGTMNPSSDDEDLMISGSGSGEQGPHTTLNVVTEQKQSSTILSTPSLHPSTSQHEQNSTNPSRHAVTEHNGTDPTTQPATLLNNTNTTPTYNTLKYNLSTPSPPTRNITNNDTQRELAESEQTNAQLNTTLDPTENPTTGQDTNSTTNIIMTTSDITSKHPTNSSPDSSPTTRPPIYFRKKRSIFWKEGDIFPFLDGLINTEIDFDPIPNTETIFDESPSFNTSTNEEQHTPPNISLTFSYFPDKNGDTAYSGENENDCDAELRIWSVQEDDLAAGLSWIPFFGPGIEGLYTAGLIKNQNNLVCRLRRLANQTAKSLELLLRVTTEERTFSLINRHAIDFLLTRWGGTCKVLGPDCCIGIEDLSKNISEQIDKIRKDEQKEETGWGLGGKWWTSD

[5] = biological target: T4, recombinant SUDV glycoprotein (SUDV (Sudan ebolavirus), UniProt Q7T9D9 33-650); experiment: ELISA dose-response fit, reference scFv22-1
T4 sequence: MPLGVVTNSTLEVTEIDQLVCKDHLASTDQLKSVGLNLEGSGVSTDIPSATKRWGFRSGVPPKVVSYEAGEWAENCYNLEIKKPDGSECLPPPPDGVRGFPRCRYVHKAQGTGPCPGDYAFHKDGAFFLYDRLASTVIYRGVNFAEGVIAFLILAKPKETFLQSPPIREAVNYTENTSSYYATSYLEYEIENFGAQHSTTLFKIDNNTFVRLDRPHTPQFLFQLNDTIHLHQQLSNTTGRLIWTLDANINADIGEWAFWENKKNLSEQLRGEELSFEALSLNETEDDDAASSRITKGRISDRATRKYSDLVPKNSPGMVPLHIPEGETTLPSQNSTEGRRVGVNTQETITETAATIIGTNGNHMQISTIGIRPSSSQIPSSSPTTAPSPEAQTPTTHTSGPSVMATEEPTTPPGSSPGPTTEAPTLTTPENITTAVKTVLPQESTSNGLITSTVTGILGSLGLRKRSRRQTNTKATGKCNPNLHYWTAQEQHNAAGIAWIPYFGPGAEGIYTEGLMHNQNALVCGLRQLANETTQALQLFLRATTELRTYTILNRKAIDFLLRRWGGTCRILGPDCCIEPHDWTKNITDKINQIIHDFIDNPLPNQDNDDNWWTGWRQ

B1: EbovGPscFv4-2 (scFv)
scFv: MAWSHPQFEKTGSGGAELVKSGASVKLSCTASGFNIKDDYMHWVKQRPEQGLEWIGWIDPENGDTEYASKFQGKATITADTSSNTAYLQLSSLTSEDTAVYYCTTYYYGSAWFAYWGQGTLVTVSAGGGGSGGGGSGGGGSGGGGSASLSVSVGETVTITCRASGNIHNYLAWYQQKQGKSPQLLVYNAKTLADGVPSRFSGSGSGTQYSLKINNLQPEDFGSYYCQHFWSTPYTFGGGTKLEIKRADAAPTVSIFPPSSEQLTSGGASVVCFLNNFTHCQELQQDECS
EC50 [1]: < 9 µg/mL
EC50 [2]: < 9 µg/mL and 7.44 µg/mL
EC50 [3]: < 9 µg/mL and 6.95 µg/mL
EC50 [4]: 4.51 µg/mL and < 9 µg/mL
fold affinity against scFv22-1 [5]: ~2 fold
